Results published in PMC5065005 (The FEBS journal, 2016).

Target: the molecule itself
Assay: 1D 1H NMR spectra at increasing protein concentration

B1: human FBxo3 ApaG domain, residues 278–407 (domain or fragment, UniProt Q9UK99 278-407, looked up)
chain: VATTGDITVSVSTSFLPELSSVHPPHYFFTYRIRIEMSKDALPEKACQLDSRYWRITNAKGDVEEVQGPGVVGEFPIISPGRVYEYTSCTTFSTTSGYMEGYYTFHFLYFKDKIFNVAIPRFHMACPTFR
binding result: binds
